{"source": "patent US20240166755A1", "about": "(UNIVERSITY OF SOUTHERN CALIFORNIA, published 2024)", "binders": {"B1": {"name": "CD8SP-161-(vL-vH)-GGSG-NLuc-AcV5 (scFv)", "scFv": "DDIQMTQSSSSFSVSLGDRVTITCMASEDIYIRLAWYQQKPGNAPRLLISAATSLETGVPSRFSGSGSGKDYTLSITSLQTEDVGTYYCQQYWSSPWTFGGGTKLEINGGGGSGGGGSGGGGSDVQLQESGPGLVKPSQSLSLTCTVTGYSITSDYTWNWIRQFPGNKLEWMGYITYSGSTSYNPSLKSRNSITRDTSKNQFFLQLNSVTTEDTATYYCARLGRRYTMDYWGQGTSVTVSSTRGGSGVFTLEDFVGDWRQTAGYNLDQVLEQGGVSSLFQNLGVSVTPIQRIVLSGENGLKIDIHVIIPYEGLSGDQMGQIEKIFKVVYPVDDHHFKVILHYGTLVIDGVTPNMIDYFGRPYEGIAVFDGKKITVTGTLWNGNKIIDERLINPDGSLLFRVTINGVTGWRLCERILASWKDASGWS", "notes": "the entry includes the CD8 signal peptide"}, "B2": {"name": "CD8SP-12E10-(vL-vH)-Myc-CD28z-T2A-PAC(031615-S03) (scFv)", "chain": "DQVQLQQSGPGLVKPSETLSLTCTVSGDSISSYYWSWIRQPPGKGLEWIGYIYYSGSTNYNPSLKSRVTISVDTSKSQFSLKLSSVTAADTAVYYCARGRYFDVWGRGTMVTSSGGGGSGGGGSGGGGSSSYVLTQPPSVSGSPGQSITISCTGTSSDVGGYNYVSWYQQHPGKAPKLMIYEGSKRPSGVSNRFSGSKSGNTASLTISGLQAEDEADYYCSSYTTRSTRVFGGGTKLTVLGAAATREQKLISEEDLKIEVMYPPPYLDNEKSNGTIIHVKGKHLCPSPLFPGPSKPFWVLVVVGGVLACYSLLVTVAFIIFWVRSKRSRLLHSDYMNMTPRRPGPTRKHYQPYAPPRDFAAYRSRVKFSRSADAPAYQQGQNQLYNELNLGRREEYDVLDKRRGRDPEMGGKPRRKNPQEGLYNELQKDKMAEAYSEIGMKGERRRGKGHDGLYQGLSTATKDTYDALHMQALPPRSSGSGEGRGSLLTCGDVEENPG", "notes": "CAR on cells; entry = whole encoded polyprotein incl; CD8 signal peptide and T2A-PAC"}, "B3": {"name": "CD8SP-KSHV-4C3-(vL-vH)-Myc-BBz-T2A-PAC(042315-N01) (scFv)", "chain": "DIVMTQSPSSLTMSVGQKVTMSCKSSHSLLNSRNQKNYLAWFQQKPGQSPKLLVYFASTRESGVPDRFIGSGSGTDFTLTISNVQAEDLADYFCQQHYTTLPTFGGGTKLEIKGGGGSGGGGSGGGGSQIQLVQSGPDLKKPGETVKISCKASGYTFTNTGMNWVKQAPGKGLKWMGWINTYTGEPTYADDFKGRFTFSLETSASTAYLQINNLKNEDTATYFCTRWGYGSSLYYAMDYWGQGTSVTVSSTREQKLISEEDLAKPTTTPAPRPPTPAPTIASQPLSLRPEACRPAAGGAVHTRGLDFACDIYIWAPLAGTCGVLLLSLVITLYCKRGRKKLLYIFKQPFMRPVQTTQEEDGCSCRFPEEEEGGCELRVKFSRSADAPAYQQGQNQLYNELNLGRREEYDVLDKRRGRDPEMGGKPRRKNPQEGLYNELQKDKMAEAYSEIGMKGERRRGKGHDGLYQGLSTATKDTYDALHMQALPPRSSGSGEGRGSLLTCGDVEENPG", "notes": "also called control CAR 4C3"}, "B4": {"name": "CD8SP-4C3-(vL-vH)-Myc-CD28z-T2A-Pac(031615-W05) (scFv)", "chain": "DIVMTQSPSSLTMSVGQKVTMSCKSSHSLLNSRNQKNYLAWFQQKPGQSPKLLVYFASTRESGVPDRFIGSGSGTDFTLTISNVQAEDLADYFCQQHYTTLPTFGGGTKLEIKGGGGSGGGGSGGGGSQIQLVQSGPDLKKPGETVKISCKASGYTFTNTGMNWVKQAPGKGLKWMGWINTYTGEPTYADDFKGRFTFSLETSASTAYLQINNLKNEDTATYFCTRWGYGSSLYYAMDYWGQGTSVTVSSTREQKLISEEDLKIEVMYPPPYLDNEKSNGTIIHVKGKHLCPSPLFPGPSKPFWVLVVVGGVLACYSLLVTVAFIIFWVRSKRSRLLHSDYMNMTPRRPGPTRKHYQPYAPPRDFAAYRSRVKFSRSADAPAYQQGQNQLYNELNLGRREEYDVLDKRRGRDPEMGGKPRRKNPQEGLYNELQKDKMAEAYSEIGMKGERRRGKGHDGLYQGLSTATKDTYDALHMQALPPRSSGSGEGRGSLLTCGDVEENPG", "notes": "also called control CAR 4C3"}, "B5": {"name": "CD8SP-175-(vL-vH)-Myc-CD28z-T2A-PAC(031615-Q04) (scFv)", "chain": "DQIVLTQSPAIMSASPGEKVTISCSASSSVSYMYWYQQKPGSSPKPWIYRTSNLASGVPARFSGSGSGTSYSLTISNMEAEDAAAYYCQQYHSYPTTFGGGTKLEVKGGGGSGGGGSGGGGSEVQLVESGGGLVQPKGSLKLSCAASGFSFNTYAMNWVRQAPGKGLEWIAHIRSKSNNFATYYADSVKDRFSISRDASENILFLQMNNLKTEDTAMYYCVRQGGDFPMDYWGQGTSVTVSSTREQKLISEEDLKIEVMYPPPYLDNEKSNGTIIHVKGKHLCPSPLFPGPSKPFWVLVVVGGVLACYSLLVTVAFIIFWVRSKRSRLLHSDYMNMTPRRPGPTRKHYQPYAPPRDFAAYRSRVKFSRSADAPAYQQGQNQLYNELNLGRREEYDVLDKRRGRDPEMGGKPRRKNPQEGLYNELQKDKMAEAYSEIGMKGERRRGKGHDGLYQGLSTATKDTYDALHMQALPPRSSGSGEGRGSLLTCGDVEENPG", "notes": "as for B2"}, "B6": {"name": "CD8SP-161-(vL-vH)-Myc-CD28z-T2A-PAC(021715-Z07) (scFv)", "chain": "DDIQMTQSSSSFSVSLGDRVTITCMASEDIYIRLAWYQQKPGNAPRLLISAATSLETGVPSRFSGSGSGKDYTLSITSLQTEDVGTYYCQQYWSSPWTFGGGTKLEINGGGGSGGGGSGGGGSDVQLQESGPGLVKPSQSLSLTCTVTGYSITSDYTWNWIRQFPGNKLEWMGYITYSGSTSYNPSLKSRNSITRDTSKNQFFLQLNSVTTEDTATYYCARLGRRYTMDYWGQGTSVTVSSTREQKLISEEDLKIEVMYPPPYLDNEKSNGTIIHVKGKHLCPSPLFPGPSKPFWVLVVVGGVLACYSLLVTVAFIIFWVRSKRSRLLHSDYMNMTPRRPGPTRKHYQPYAPPRDFAAYRSRVKFSRSADAPAYQQGQNQLYNELNLGRREEYDVLDKRRGRDPEMGGKPRRKNPQEGLYNELQKDKMAEAYSEIGMKGERRRGKGHDGLYQGLSTATKDTYDALHMQALPPRSSGSGEGRGSLLTCGDVEENPG", "notes": "as for B2"}, "B7": {"name": "CD8SP-AB317-(vL-vH)-Myc-CD28z-T2A-PAC(031615-T04) (scFv)", "chain": "DIVLTQSPASLAVSLGQSVTISCRASESVEYYGTSLMQWYQQKPGQPPKLLIYGASNVESGVPARFSGSGSGTDFSLNIHPVEEDDIAMYFCQQSRKVPWTFGGGTKLEIKGGGGSGGGGSGGGGSEVKLVESGGGLVKPGGSRKLSCAASGFTFSSYTMSWVRQTPAKRLEWVATISSGSSTIYYADTVKGRFTISRDNAKNTLFLQMTSLRSEDTAMYYCARRWFLDCWGQGTTLTVSSTREQKLISEEDLKIEVMYPPPYLDNEKSNGTIIHVKGKHLCPSPLFPGPSKPFWVLVVVGGVLACYSLLVTVAFIIFWVRSKRSRLLHSDYMNMTPRRPGPTRKHYQPYAPPRDFAAYRSRVKFSRSADAPAYQQGQNQLYNELNLGRREEYDVLDKRRGRDPEMGGKPRRKNPQEGLYNELQKDKMAEAYSEIGMKGERRRGKGHDGLYQGLSTATKDTYDALHMQALPPRSSGSGEGRGSLLTCGDVEENPG", "notes": "as for B2"}}, "key": {"[1]": {"target": "T1, human MPL (thrombopoietin receptor) (human, UniProt P40238 26-635)", "T1 construct": "whole, on cells; also called c-MPL; c-Mpl", "T1 sequence (looked up)": "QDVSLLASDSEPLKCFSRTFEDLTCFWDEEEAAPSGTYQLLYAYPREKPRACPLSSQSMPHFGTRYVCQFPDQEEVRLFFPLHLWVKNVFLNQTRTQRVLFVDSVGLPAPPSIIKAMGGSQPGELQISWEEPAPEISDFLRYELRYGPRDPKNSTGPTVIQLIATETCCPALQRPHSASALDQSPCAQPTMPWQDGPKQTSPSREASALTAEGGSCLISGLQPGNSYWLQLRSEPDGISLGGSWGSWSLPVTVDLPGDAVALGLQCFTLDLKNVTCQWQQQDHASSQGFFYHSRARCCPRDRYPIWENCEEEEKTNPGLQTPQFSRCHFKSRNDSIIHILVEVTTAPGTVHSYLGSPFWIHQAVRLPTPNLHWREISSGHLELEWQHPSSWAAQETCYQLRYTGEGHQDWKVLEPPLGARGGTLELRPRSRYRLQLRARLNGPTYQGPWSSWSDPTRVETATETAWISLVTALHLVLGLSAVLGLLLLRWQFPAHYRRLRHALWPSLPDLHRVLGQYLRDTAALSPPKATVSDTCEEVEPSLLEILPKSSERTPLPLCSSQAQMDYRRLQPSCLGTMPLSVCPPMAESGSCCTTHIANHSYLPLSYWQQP", "assay": "NLuc luminescence of scFv-NLuc fusion supernatant bound to washed cells"}, "[2]": {"target": "T2, FLAG-CD19-ECD-GGSG-NLuc-AcV5 (human)", "T2 construct": "the entry includes the signal peptide; also called CD19-GGSG-NLuc-AcV5; CD19-GGSG-NLuc fusion protein", "T2 chain": "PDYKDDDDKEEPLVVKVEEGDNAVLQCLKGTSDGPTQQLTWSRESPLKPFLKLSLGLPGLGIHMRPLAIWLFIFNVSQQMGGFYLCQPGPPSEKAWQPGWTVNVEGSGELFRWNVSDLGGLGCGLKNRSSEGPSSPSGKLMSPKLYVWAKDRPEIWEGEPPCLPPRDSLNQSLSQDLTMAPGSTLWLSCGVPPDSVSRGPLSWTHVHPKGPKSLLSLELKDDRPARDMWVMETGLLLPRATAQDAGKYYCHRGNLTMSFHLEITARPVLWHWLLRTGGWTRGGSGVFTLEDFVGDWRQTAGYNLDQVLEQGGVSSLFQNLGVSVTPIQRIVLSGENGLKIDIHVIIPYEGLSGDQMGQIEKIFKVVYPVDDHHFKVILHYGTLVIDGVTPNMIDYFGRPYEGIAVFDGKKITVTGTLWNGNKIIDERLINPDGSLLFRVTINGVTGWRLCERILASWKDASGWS", "assay": "NLuc assay: CAR-T cells incubated with CD19-GGSG-NLuc-AcV5 supernatant"}, "[3]": {"target": "T2, FLAG-CD19-ECD-GGSG-NLuc-AcV5", "assay": "NLuc assay: CAR on Jurkat-NFAT-Luc cells incubated with FLAG-CD19-ECD-GGSG-NLuc-AcV5 supernatant"}, "MPL-ECD-GGSG-Nluc-AcV5": {"target": "T3, MPL-ECD-GGSG-Nluc-AcV5 (human)", "T3 construct": "the entry includes the native signal peptide; also called MPL-GGSG-NLuc-AcV5; MPL-GGSG-NLuc AcV5", "T3 chain": "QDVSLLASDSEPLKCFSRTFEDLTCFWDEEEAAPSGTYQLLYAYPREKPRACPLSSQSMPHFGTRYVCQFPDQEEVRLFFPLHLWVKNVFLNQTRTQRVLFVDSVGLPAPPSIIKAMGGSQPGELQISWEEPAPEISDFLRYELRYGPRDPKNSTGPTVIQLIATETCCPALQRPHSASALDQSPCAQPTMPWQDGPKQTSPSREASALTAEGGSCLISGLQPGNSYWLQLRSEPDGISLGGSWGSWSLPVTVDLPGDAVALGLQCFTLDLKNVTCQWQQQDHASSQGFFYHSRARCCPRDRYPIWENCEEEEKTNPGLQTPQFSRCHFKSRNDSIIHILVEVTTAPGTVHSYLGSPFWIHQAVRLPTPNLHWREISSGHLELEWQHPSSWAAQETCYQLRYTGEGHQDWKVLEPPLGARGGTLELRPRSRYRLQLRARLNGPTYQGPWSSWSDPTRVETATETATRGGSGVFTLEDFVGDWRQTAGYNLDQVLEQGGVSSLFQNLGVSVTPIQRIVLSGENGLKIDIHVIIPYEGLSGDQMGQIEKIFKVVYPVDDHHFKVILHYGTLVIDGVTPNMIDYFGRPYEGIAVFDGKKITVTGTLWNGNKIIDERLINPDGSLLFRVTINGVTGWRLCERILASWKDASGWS", "assay": "NLuc assay: CAR-T cells incubated with MPL-GGSG-NLuc-AcV5 supernatant"}}, "data": [{"binder": "B1", "values": [{"measurement": "binding result", "setting": "[1]", "value": "binds"}]}, {"binder": "B2", "values": [{"measurement": "binding result", "setting": "[2]", "value": "no binding"}]}, {"binder": "B3", "values": [{"measurement": "binding result", "setting": "[3]", "value": "no binding"}]}, {"binder": "B4", "values": [{"measurement": "binding result", "setting": "MPL-ECD-GGSG-Nluc-AcV5", "value": "no binding"}]}, {"binder": "B5", "values": [{"measurement": "binding result", "setting": "[2]", "value": "no binding"}]}, {"binder": "B6", "values": [{"measurement": "binding result", "setting": "[2]", "value": "no binding"}]}, {"binder": "B7", "values": [{"measurement": "binding result", "setting": "[2]", "value": "no binding"}]}]}
